Experimental data reported in patent USRE49026 (MEDICAL DIAGNOSTIC LABORATORIES, dated 2022).
Bridges are numbered along the chain shown (N, C = ends). Where no end group is shown, it is not given here.

B6: recombinant human IL-23R/Fc chimera (Fc fusion, UniProt Q5VWK5 24-353, looked up)
chain: GITNINCSGHIWVEPATIFKMGMNISIYCQAAIKNCQPRKLHFYKNGIKERFQITRINKTTARLWYKNFLEPHASMYCTAECPKHFQETLICGKDISSGYPPDIPDEVTCVIYEYSGNMTCTWNAGKLTYIDTKYVVHVKSLETEEEQQYLTSSYINISTDSLQGGKKYLVWVQAANALGMEESKQLQIHLDDIVIPSAAVISRAETINATVPKTIIYWDSQTTIEKVSCEMRYKATTNQTWNVKEFDTNFTYVQQSEFYLEPNIKYVFQVRCQETGKRYWQPWSSLFFHKTPETVPQVTSKAFQHDTWNSGLTVASISTGHLTSDNRGD
notes: range 24-353; bought (R&D Systems Cat. No. 1400-IR-050); also called rhIL23R-Fc; IL-23R/Fc fusion protein; not shown: human IgG1 Fc, residues 100-330

Tests used:
[1] = biological target: T1, human IL-23R expressed on the cell surface (human, UniProt Q5VWK5 24-629); test: cell-based or functional assay
T1 sequence (looked up): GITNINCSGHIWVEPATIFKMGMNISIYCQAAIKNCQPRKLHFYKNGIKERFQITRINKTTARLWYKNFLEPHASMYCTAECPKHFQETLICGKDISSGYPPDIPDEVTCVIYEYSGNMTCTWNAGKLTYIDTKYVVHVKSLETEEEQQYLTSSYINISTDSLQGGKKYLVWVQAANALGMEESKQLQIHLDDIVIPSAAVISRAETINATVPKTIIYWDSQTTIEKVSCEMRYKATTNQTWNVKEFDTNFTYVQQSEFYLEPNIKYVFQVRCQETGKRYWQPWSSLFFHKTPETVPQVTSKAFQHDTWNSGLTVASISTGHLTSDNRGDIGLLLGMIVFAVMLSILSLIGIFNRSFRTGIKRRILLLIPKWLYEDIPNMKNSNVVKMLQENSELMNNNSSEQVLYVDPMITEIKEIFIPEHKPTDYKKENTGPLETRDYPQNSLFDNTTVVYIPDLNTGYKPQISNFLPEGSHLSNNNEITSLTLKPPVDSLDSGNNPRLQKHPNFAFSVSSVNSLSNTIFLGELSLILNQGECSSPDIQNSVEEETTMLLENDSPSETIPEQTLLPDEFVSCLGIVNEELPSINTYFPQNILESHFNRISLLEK

[2] = biological target: IL-23 receptor on Sprague Dawley rat splenocytes (rat); test: cell-based or functional assay
[3] = biological target: B6; test: cell-free competitive ELISA against IL-23 on coated IL-23R-Fc
[4] = biological target: B6; test: competitive ELISA against IL-23 (50 ng/well) on coated IL-23R-Fc
[5] = biological target: T2, recombinant mouse IL-23R-Fc (mouse, UniProt Q8K4B4 24-374, limits assumed); test: competitive ELISA against mouse IL-23 on coated mouse IL-23R-Fc
T2 construct: whole entry named; not shown: Fc part, not described
T2 sequence (looked up): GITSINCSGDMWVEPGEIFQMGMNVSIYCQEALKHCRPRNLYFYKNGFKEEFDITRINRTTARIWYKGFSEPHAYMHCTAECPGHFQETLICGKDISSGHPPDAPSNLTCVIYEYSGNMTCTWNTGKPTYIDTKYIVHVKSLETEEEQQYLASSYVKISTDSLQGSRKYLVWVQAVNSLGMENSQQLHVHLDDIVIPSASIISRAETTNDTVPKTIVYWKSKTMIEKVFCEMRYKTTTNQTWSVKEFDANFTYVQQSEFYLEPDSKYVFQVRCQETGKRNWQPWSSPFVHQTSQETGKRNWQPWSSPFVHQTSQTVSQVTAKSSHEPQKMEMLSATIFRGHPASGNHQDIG

[6] = biological target: B6; test: phage display panning, protein A capture
[7] = biological target: T3, WT IL-23 cytokine (wild type p19 + p40, expressed in 293T cells) (human, UniProt Q9NPF7 20-189; P29460 23-328); test: ELISA of conditioned media on coated IL-23R-Fc, anti-p40 detection
T3 construct: conditioned medium in the ELISAs; purified on HisTALON for the reporter assay; also called isolated WT IL-23 cytokine; not shown: 6xHis tag at the C-terminus
T3 sequence (looked up) 1: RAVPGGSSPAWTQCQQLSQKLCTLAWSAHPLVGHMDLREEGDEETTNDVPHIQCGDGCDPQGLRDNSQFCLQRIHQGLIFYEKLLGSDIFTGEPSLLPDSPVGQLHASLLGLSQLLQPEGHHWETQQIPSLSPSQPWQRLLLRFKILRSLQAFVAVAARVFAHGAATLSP
T3 sequence (looked up) 2: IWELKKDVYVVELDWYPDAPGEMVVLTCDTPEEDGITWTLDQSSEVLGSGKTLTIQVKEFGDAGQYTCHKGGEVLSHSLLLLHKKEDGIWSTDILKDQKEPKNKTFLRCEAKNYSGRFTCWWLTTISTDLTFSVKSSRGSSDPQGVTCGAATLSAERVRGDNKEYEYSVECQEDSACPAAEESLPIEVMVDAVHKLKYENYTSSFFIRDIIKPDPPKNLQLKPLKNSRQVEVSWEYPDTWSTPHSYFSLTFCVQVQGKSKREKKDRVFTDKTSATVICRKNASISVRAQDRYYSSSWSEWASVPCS

[8] = biological target: B6; test: phage ELISA on coated IL-23R/Fc, anti-M13 detection
[9] = biological target: B6; test: competitive ELISA on coated IL-23R-Fc, 50 µM peptide

B1: recombinant human IL-23 (ligand)
chain 1: RAVPGGSSPAWTQCQQLSQKLCTLAWSAHPLVGHMDLREEGDEETTNDVPHIQCGDGCDPQGLRDNSQFCLQRIHQGLIFYEKLLGSDIFTGEPSLLPDSPVGQLHASLLGLSQLLQPEGHHWETQQIPSLSPSQPWQRLLLRFKILRSLQAFVAVAARVFAHGAATLSP
chain 2: IWELKKDVYVVELDWYPDAPGEMVVLTCDTPEEDGITWTLDQSSEVLGSGKTLTIQVKEFGDAGQYTCHKGGEVLSHSLLLLHKKEDGIWSTDILKDQKEPKNKTFLRCEAKNYSGRFTCWWLTTISTDLTFSVKSSRGSSDPQGVTCGAATLSAERVRGDNKEYEYSVECQEDSACPAAEESLPIEVMVDAVHKLKYENYTSSFFIRDIIKPDPPKNLQLKPLKNSRQVEVSWEYPDTWSTPHSYFSLTFCVQVQGKSKREKKDRVFTDKTSATVICRKNASISVRAQDRYYSSSWSEWASVPCS
[1]
  reporter luciferase activity, DB STAT3-Luc cells, 50 ng/ml: ~10 fold

B2: cyclic peptide no. 2HT AA (peptide)
peptide: AKMTWVDYWLKNCA
modifications: cyclic: head-to-tail amide bond (alanine to alanine)
notes: cyclised form of linear peptide no; also called cyclic polypeptide no; 2HT AA (Head to Tail: Alanine to Alanine)
[2]
  IC50, IL-17F mRNA (qRT-PCR) in rat splenocytes, 200 ng/ml IL-23: 270 nM
[1]
  IC50, IL-17F production (ELISA) in differentiated human Th17 cells, 1 ng/ml IL-23: 339 nM
  IC50, IL-22 production (ELISA) in human PBMC, 2 ng/ml IL-23: 338 nM
  IC50, cell-based DB-Luc assay: 342 nM
[3]
  IC50: 8.1 nM

B3: synthetic polypeptide no. 1 (peptide)
peptide: SGASWVQYWVQR
notes: also called peptide number 1
[1]
  relative level of p-STAT3/STAT3 at 50 µM peptide: ~0.6 ratio
  relative level of p-STAT3/STAT3 at 100 µM peptide: ~0.3 ratio
  relative p-STAT3/STAT3 level at 10 µM, 5 µM and 1 µM peptide: > 1.5 ratio
[4]
  IC50: 6250 to 12500 nM

B4: cyclic polypeptide no. 23.19 (peptide)
peptide: CAMTWQDYWLYGRC
modifications: disulfide 1-14
notes: also called cyc23.15
[1]
  IC50, DB STAT3-Luc reporter cells, 50 ng/ml IL-23: 2500 nM
[5]
  IC50: 12500 nM

B5: M13 phage displaying polypeptide no. 13 (peptide, not shown: large carriers)
chain: YSWEWYATRFVQ
[6]
  binding result: binds

## B6
[7]
  binding result: binds

B7: M13 phage displaying polypeptide no. 15 (peptide, not shown: large carriers)
chain: DSDWRWFWENHW
[6]
  binding result: binds

B8: M13 phage displaying polypeptide no. 18 (peptide, not shown: large carriers)
chain: STWQEYYDVWQK
[6]
  binding result: binds

B9: M13 phage displaying polypeptide no. 19 (peptide, not shown: large carriers)
chain: NWIDWWTQSEKH
[6]
  binding result: binds

B10: M13 phage displaying polypeptide no. 20 (peptide, not shown: large carriers)
chain: SALSWEHYWRKH
notes: also called no
[6]
  binding result: binds

B11: M13 phage displaying polypeptide no. 22 (peptide, not shown: large carriers)
chain: AVWQNYWNEQLY
[6]
  binding result: binds

B12: M13 phage displaying polypeptide no. 25 (peptide, not shown: large carriers)
chain: AWQDVWKMHNKV
[6]
  binding result: binds

B13: M13 phage displaying polypeptide no. 2 (peptide, not shown: large carriers)
chain: TENWWTMVPRWM
[6]
  binding result: binds

B14: M13 phage displaying polypeptide no. 29 (peptide, not shown: large carriers)
chain: EPFAWHAYWVRN
[6]
  binding result: binds

B15: M13 phage displaying polypeptide no. 30 (peptide, not shown: large carriers)
chain: HDWQTYWVTRER
[6]
  binding result: binds

B16: M13 phage displaying polypeptide no. 32 (peptide, not shown: large carriers)
chain: TSWQSFWHHHNT
[6]
  binding result: binds

B17: M13 phage displaying polypeptide no. 3 (peptide, not shown: large carriers)
chain: DQERWLSYFLGT
[6]
  binding result: binds

B18: M13 phage displaying polypeptide no. 4 (peptide, not shown: large carriers)
chain: AETPSWYNYWMN
notes: also called nos
[8]
  binding result: binds

B19: M13 phage displaying polypeptide no. 5 (peptide, not shown: large carriers)
chain: NWTSQLHTGIST
notes: also called nos
[8]
  binding result: binds

B20: M13 phage displaying polypeptide no. 6 (peptide, not shown: large carriers)
chain: MPDWHAFYLQAQ
[8]
  binding result: binds

B21: M13 phage displaying polypeptide no. 7 (peptide, not shown: large carriers)
chain: QSDTWMTYWKHH
[8]
  binding result: binds

B22: M13 phage displaying polypeptide no. 10 (peptide, not shown: large carriers)
chain: ASWEMYWATSYN
[8]
  binding result: binds

B23: synthetic polypeptide no. 9 (peptide)
peptide: NWATYWQLRHQT
notes: also called peptide number 9
[4]
  IC50: ~3000 nM

B24: synthetic polypeptide no. 23 (peptide)
peptide: AMTWEDWWLYGR
notes: also called peptide number 23
[4]
  IC50: 0 to 1560 nM

B25: synthetic polypeptide no. 27 (peptide)
peptide: DDWMQYWRQQVR
[4]
  IC50: ~1560 nM

B26: modified synthetic polypeptide no. 1.1 (peptide)
peptide: SGASFVQYWVQR
[9]
  OD450 of bound IL-23 with the peptide as competitor: ≥ 0.4 OD450

B27: modified synthetic polypeptide no. 1.2 (peptide)
peptide: SGASWVQYFVQR
[9]
  OD450 of bound IL-23 with the peptide as competitor: ≥ 0.4 OD450

B28: modified synthetic polypeptide no. 1.3 (peptide)
peptide: SGASFVQYFVQR
[9]
  OD450 of bound IL-23 with the peptide as competitor: ≥ 0.4 OD450
